Measurements as given in publication PMC11960969, “Mdga2 deficiency leads to an aberrant activation of BDNF/TrkB signaling that underlies autism-relevant synaptic and behavioral changes in mice” (PLOS Biology, 2025).

System: hippocampal proteins
Test: DIA quantification proteomics, hippocampus of Mdga2+/- vs WT mice
Set-up: species or system mouse
Conditions: S3 Table, downregulated DEPs; for log2FC: Mdga2+/- vs WT mouse hippocampus (HET-HIP-VS-WT-HIP), SE, pvalue and adj_pvalue in own columns c3-c5; for Class: regulation class of the protein, HET-HIP-VS-WT-HIP
Experimental: The hippocampus of 1.5–2-month-old Mdga2^ +/− male mice and their WT littermate controls was collected and sent to the BGI company for DIA quantification proteomics and data analysis. Briefly, samples were lysed and sonicated. After centrifugation, the supernatant was taken for quantification. Equal amounts of proteins (100 μg) per sample were subjected to trypsin enzymatic hydrolysis. After dryness, 10 μg enzymatic peptides per sample were separated by high-pH fractionation into a total of 10 fractions using high-performance liquid chromatography (HPLC) and freeze-dried. Data-dependent acquisition (DDA) fractions and DIA samples were analyzed by nano-LC–MS/MS. DDA data was identified by Andromeda search engine within MaxQuant. Identified results were used by Spectronaut^TM for spectral library construction. For DIA data, Spectronaut^TM used the constructed spectral library information to complete deconvolution and extraction, and used the mProphet algorithm to complete analytical quality control for obtaining reliable quantitative results. The mass spectrometry proteomics data have been deposited to the ProteomeXchange Consortium via the PRIDE [62] partner repository with the dataset identifier PXD050810. DEPs between comparison groups were identified based on the quantitative results, using the fold change >1.1 and p-value <0.05 as the criteria. After retrieval from the UniProtKB database, identified DEPs were processed for GO analysis by using DAVID (https://david.ncifcrf.gov/home.jsp) and Metascape database (https://metascape.org/gp/index.html).

Molecule	log2FC	Class
sp¦O35449¦PRRT1_MOUSE (protein, UniProt O35449 1-306, looked up) Proline-rich transmembrane …: MSSEKSGLPDSVPHTSPPPYNAPQPPAEPPIPPPQTAPSSHHHHHHHYHQSGTATLPRLGAGGLASAAASAQRGPSSSATLPRPPHHAPPGPAAGAPPPGCATLPRMPPDPYLQETRFEGPLPPPPPAAAAPPPPAPAPTAQAPGFVVPTHAGAVGTLPLGGYVAPGYPLQLQPCTAYVPVYPVGTPYAGGTPGGPGVTSTLPPPPQGPGLALLEPRRPPHDYMPIAVLTTICCFWPTGIIAIFKAVQVRTALARGDLVSAEIASREARNFSFISLAVGIAAMVLCTILTVVIIIAAQHHENYWDP	-1.273	Down
sp¦Q8K0L9¦ZBT20_MOUSE (protein, UniProt Q8K0L9 1-741, looked up) Zinc finger and BTB …: MLERKKPKTAENQKASEENEITQPGGSSAKPALPCLNFEAVLSPAPALIHSTHSLTNSHAHTGSSDCDISCKGMTERIHSINLHNFSNSVLETLNEQRNRGHFCDVTVRIHGSMLRAHRCVLAAGSPFFQDKLLLGYSDIEIPSVVSVQSVQKLIDFMYSGVLRVSQSEALQILTAASILQIKTVIDECTRIVSQNVGDVFPGIQDSGQDTPRGTPESGTSGQSSDTESGYLQSHPQHSVDRIYSALYACSMQNGSGERSFYSGAVVSHHETALGLPRDHHMEDPSWITRIHERSQQMERYLSTTPETTHCRKQPRPVRIQTLVGNIHIKQEMEDDYDYYGQQRVQILERNESEECTEDTDQAEGTESEPKGESFDSGVSSSIGTEPDSVEQQFGAAAPRDGQAEPAQPEQAAEAPAESSAQPNQLEPGASSPERSNESEMDNTVITVSNSSDKGVLQQPSVNTSIGQPLPSTQLYLRQTETLTSNLRMPLTLTSNTQVIGTAGNTYLPALFTTQPAGSGPKPFLFSLPQPLTGQQTQFVTVSQPGLSTFTAQLPAPQPLASSAGHSTASGQGDKKPYECTLCNKTFTAKQNYVKHMFVHTGEKPHQCSICWRSFSLKDYLIKHMVTHTGVRAYQCSICNKRFTQKSSLNVHMRLHRGEKSYECYICKKKFSHKTLLERHVALHSASNGTPPAGTPPGARAGPPGVVACTEGTTYVCSVCPAKFDQIEQFNDHMRMHVSDG	-1.342	Down
sp¦Q80TS7¦DEND_MOUSE (protein, UniProt Q80TS7 1-710, looked up) Dendrin: MLDGPLFSEGPDSPRELQDEESGSCLWVQKSKLLVIEVKTISCHYSRRAPSRQSMDIQASYWARGPQSRTCRLRPGSPEPPPRRPWASRVLQEATNWRAGPPAEVRAREQEKRKAASQEREAKETERKRRKAGGARRSPLGQPRPEPRNALRAAQPTGFPVFSRPERFGQVGRAPRPSVLPQGDPGVAWAGPWGGRRPGPPSYEAHLLLRGSAGTAPRRRWDRPPPYVAPPSYEGPHRTLGTKRGPELSRAPTSSAPVPATTRTEGGRTKKRLDPRIYRDVLGAWGLRQGRGLLGGAPGCTAARARPESCKGAIEKSSGLVAAGLNSAGDSHSQGKTTGGPGTDAALSRSAISSPPRPVPRSRQHLRGSRKGKEGSEQIWLPTCWLASPKKPPVRHSQTLPRPWAPGGTGWKESLGQREGAEHETLEVWKVTRRAHTLPRISRGPAGREGIFVIDATCVVIKSQYVPTPRTQQGQLVPSGESCSVSDSLSQPKPCHEEEGEGAAANPSVCQKRLLSSRVLNQPSEGRECEAEVGQQGDSSLEERSSSGLGFPVGEVNPRDAPTQPGSQEHPTLGPAAPVCAGSLKGSEAAGVPRRAGGGWARTPGPYAGALREAVSRIRRHTAPDSDSDEAEDLSVHSGSSDGSDTDAPGASWRNERTLPALGNTRPREGGKTAGLSDSIREIVDVISQTEEGFIREDTRKTPQGNRERE	-1.4022	Down
sp¦A3KGB4¦TBC8B_MOUSE (protein, UniProt A3KGB4 1-1114, looked up) TBC1 domain family member 8B: MWLKPEEVLLKNALKLWLMERSNEYFVLQRRRGYGEEGGGGLTGLLVGTLDSVLDSTAKVAPFRILHQTPDSQVYLSIACGANREEITKHWDWLEQNIMKTLSVFDSNEDITNFVQGKIRGLIAEEGKQSFAKEDDPEKFREALLKFEKSFGLPEQEKLVTYYSCSYWRGRVPCQGWLYLSTNFLSFYSFLLGSEIKLIISWDAISKLEKTSTVILTESIHVCSQGENHYFSMFLHINETYLLMEQLANYAIKRLFDKETFDNDPVLDDPLQITKRGLEYRAHSEQFKAFFRLPKEETLKEVHECFLWVPFSHFSSHGKMCISENYICFASQDGNLCSVIIPLREVLAIDKTDDSNRSVIISIKGKTAFRFSELKDFEQLVAKLRLKCRAASTQDDVSTEVAVSSDSTGPSENFEEQPLTCPKECSKTVNTEALMTVFHPQNLENLDSKMLKEKMKEQSWNILFSECGRGVSMFRTKKTRDLVVRGIPETLRGELWMLFSGAVNDMATNPGYYAEVVEQSLGTSNLATEEIERDLRRSLPEHPAFQSDTGISALRRVLTAYAYRNPKIGYCQAMNILTSVLLLYAKEEEAFWLLVAVCERMLPDYFNRRIIGALVDQAVFEELIRDHLPQLTDHMTDMTFFSSVSLSWFLTLFISVLPIESAVNVVDCFFYDGIKAILQLGLAILDYNLDKLLTCKDDAEAVTALNRFFDNVINKDSPLPSNVQQGSNISNEKSDHTKVDITDLIKESNEKYGSIRYEDIHSMRCRNRLYVIQTLEETTKQNVLRVVSQDVKMSLQELDELYVIFKKELFISCYWYLSCPGLKHHDPSLPYLEQYQIDCQQFRVLYHLLSPWAHSANRDSLALWTFRLLDENSDCLINFKEFSSAIDIMYNGSFTDKLKLLFKLHIPPAYTEVMSKTSSKGDELSTEELLYFSQLQVSKPADEKETESGRNSPEKGKGKIDIQAYLSQWQDELLKKEETIKDLPRMNQSQFIQFSKTLYNLFHEDPEEESLYQAIAIVTNLLLRMEEVGRKLHSPASSASTARDSGPSEGNAESSVKKDLPSPREEHQWSFAFEQILASLLNEPALVRFFERPLDLKAKLENAKSSQLRSRTKM	-1.359	Down
sp¦Q9JK53¦PRELP_MOUSE (protein, UniProt Q9JK53 22-378, looked up) Prolargin: QPTRPKPGIRRKPKPRPTPRFPQAPEPAEPTDLPPPLPPGPPSVFPDCPRECYCPPDFPSALYCDSRNLRRVPVIPPRIHYLYLQNNFITELPLESFQNATGLRWVNLDNNRIRKVDQRVLGKLPSLAFLYMEKNQLEEVPSALPRNLEQLRLSQNLISRIPPGVFSKLENLLLLDLQHNRLSDGVFKADTFQGLKNLMQLNLAHNILRKMPPKVPQAIHQLYLDSNKIETIPNGYFKDFPNLAFIRMNYNKLSDRGLPKNSFNISNLLVLHLSHNKISNVPAISNKLEHLYLNNNSIEKINGTQICPNNLVAFHDFSSDLENVPHLRYLRLDGNFLKPPIPLDLMMCFRLLQSVVI	-1.413	Down
sp¦Q9JJR9¦NRIP3_MOUSE (protein, UniProt Q9JJR9 1-240, looked up) Nuclear receptor-interacting …: MFYSGLLTEGGRKETDMREAASLRQQRRMKQAVQFIHKDSADLLPLDGLKKLGSSKDTQPHNILQRRLMETNLSKLRSTRVPWASKTNKFNQAKSEGLKKCEDEDMILVSCQCAGKDVKALVDTGCQYNLISSACVDRLGLKDHVKSHKHEGEKLSLPRHLKVVGQIEHLMITVGSLRLDCQAAVVDDNEKSLSLGLQTLRSLKCIINLDKHRLIVGKTDKEEIPFVETVSVNDDNTSEA	-1.366	Down
sp¦Q80TF3¦PCD19_MOUSE (protein, UniProt Q80TF3 22-1145, looked up) Protocadherin-19: LINLKYSVEEEQRAGTVIANVAKDAREAGFALDPRQASAFRVVSNSAPHLVDINPSSGLLVTKQKIDRDLLCRQSPKCIISLEVMSSSMEICVIKVEIKDLNDNAPSFPAAQIELEISEAASPGTRIPLDSAYDPDSGSFGVQTYELTPNELFGLEIKTRGDGSRFAELVVEKSLDRETQSHYSFRITALDGGDPPHMGTVGLSIKVTDSNDNNPVFGESTYSVSVPENSPPNTPVIRLNASDPDEGTNGQVVYSFYGYVNDRTRELFQIDPHSGLVTVTGALDYEEGHVYELDVQAKDLGPNSIPAHCKVTVSVLDTNDNPPIINLLSVNSELVEVSESAPPGYVIALVRVSDRDSGLNGRVQCRLLGNVPFRLQEYESFSTILVDGRLDREQHDQYNLTIQARDSGVPMLQSAKSFTVRITDENDNHPHFSKPYYQVIVQENNTPGAYLLSVSARDPDMGLNGSVSYQIVPSQVRDMPVFTYVSINPNSGDIYALRSFNHEQTKAFEFKVLAKDGGLPSLQSNATVRVIILDVNDNTPVITAPPLINGTAEVYIPRNSGIGYLVTVVKADDYDEGENGRVTYDMTEGDRGFFEIDQVNGEVRTTRTFNENSKPSYELIVVAHDHGKTSLSASALVLIYLSPALDAQESMGSVNLSLIFIIALGSIAGILFVTMIFVAIKCKRDNKEIRTYNCSNCLTITCLLGCFIKGQNSKCLHCISVSPNSEEQDKKAEEKVSLRGKRIAEYSYGHQKKSSKKKKISKNDIRLVPRDVEETDKMNVVSCSSLTSSLNYFDYHQQTLPLGCRRSESTFLNVENQNTRNTTASHIYHHSFNSQGPQQPDLIINGVPLPETENYSFDSNYVNSRAHLIKSSSTFKDLEGNSLKDSGHEESDQTDSEHDVQRSLYCDTAVNDVLNTSVTSMGSQMPDHDQNEGFHCREECRILGHSDRCWMPRNPMPTRSKSPEHVRNIIALSIEATAADVEAYDDCGPTKRTFATFGKDVSSHRAEERPILKGKRTVDVTICSPKVNSAIREAGNGCEAISPVTSPLHLKSPLPTKPSISYTVALAPPAHDLEHHANSGASRPSEAEPRGADNEKVMHEVNPIRKDGRDKESPSVKRLKDIVL	-1.393	Down
sp¦Q71FD5¦ZNRF2_MOUSE (protein, UniProt Q71FD5 2-238, looked up) E3 ubiquitin-protein ligase …: GAKQSGPAANGRTRAYSGSDLPSGTGSGGGGADGARAARFAAPVSGAQQPSASAGAAAAAAAAASAPAAPRSRSLGGAVGSASGGRAAQSAFSIPSAGGGGGPYGSQDSVHSSPEDSVGARDRDRPAGGGPGGPRLVIGSLPAHLSPHLFGGFKCPVCSKFVPSDEMDLHLVMCLTKPRITYNEDVLSKDTGECAICLEELQQGDTIARLPCLCIYHKGCIDEWFEVNRSCPEHPSD	-1.4	Down
